# B1: improved Light Inducible Dimer (iLID) (designed binder)
# chain: MRGSHHHHHHGSLATTLERIEKNFVITDPRLPDNPIIFASDSFLQLTEYSREEILGRNCRFLQGPETDRATVRKIRDAIDNQTEVTVQLINYTKSGKKFWNVFHLQPMRDYKGDVQYFIGVQLDGTERLHGAAEREAVCLIKKTAFQIAEAANDENYF
# modifications: flavin mononucleotide (FMN) cofactor; in the lit state a metastable covalent bond of FMN with Cys450
# How the values were obtained:
# SspB_milli [1] = biological target: T1, SspB_milli (UniProt P45206 1-150, A58V); assay: fluorescence polarisation
# SspB_milli [2] = biological target: T1, SspB_milli; assay: fluorescence polarisation; remark: listed apart in the source
binder,measurement,setting,value
B1,Kd,SspB_milli [1],56 ± 6 µM
same,fold weaker than the lit state,SspB_milli [2],≥ 25 fold
